We go through six molecules from paper PMC11786515, “CitGATA7 interact with histone acetyltransferase CitHAG28 to promote citric acid degradation by regulating the glutamine synthetase pathway in citrus”.

T1: CitGATA7 (Citrus, UniProt A0ACB8JKI3 1-185)
T1 sequence: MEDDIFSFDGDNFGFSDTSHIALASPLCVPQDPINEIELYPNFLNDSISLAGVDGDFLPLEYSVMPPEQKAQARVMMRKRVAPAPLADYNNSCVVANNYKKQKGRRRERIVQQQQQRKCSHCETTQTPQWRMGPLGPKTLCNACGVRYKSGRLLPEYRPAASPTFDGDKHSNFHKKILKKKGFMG

B1: CitIDH1 promoter probe mutant (dsDNA)
DNA 1: CATTAAATTCCATTTTTTCTAATATG
DNA 2: CATATTAGAAAAAATGGAATTTAATG
B2: CitGS1 promoter probe mutant (dsDNA)
DNA 1: GCACACCATCTCAAAAAGGTGGTAATTTTG
DNA 2: CAAAATTACCACCTTTTTGAGATGGTGTGC
B3: CitACO3 promoter probe mutant (dsDNA)
DNA 1: TCCCATAAAAAACCCCCCTAATAATAAAAG
DNA 2: CTTTTATTATTAGGGGGGTTTTTTATGGGA
B4: CitACO3 promoter probe WT (dsDNA)
DNA 1: TCCCATAAAAAAAGATCATAATAATAAAAG
DNA 2: CTTTTATTATTATGATCTTTTTTTATGGGA
B5: CitGS1 promoter probe WT (dsDNA)
DNA 1: B2 DNA 1 with A13G, A15T, A16C
DNA 2: B2 DNA 2 with T15G, T16A, T18C
B6: CitIDH1 promoter probe WT (dsDNA)
DNA 1: CATTAAATTCCACATCATCTAATATG
DNA 2: CATATTAGATGATGTGGAATTTAATG

Residue numbers refer to the chain shown, from its start.

The first data set concerns the target T1, CitGATA7. The data set can be described thus: EMSA; LightShift Chemiluminescent EMSA kit (Thermo), manufacturer's instructions; buffer, salt, pH and temperature not stated. The following applies: protein: recombinant; tags: His (pET-32a); label: 3'-biotin (both strands); blunt. A general note: A gel shift assay detects complexes by their altered migration in electrophoresis.
Turning to B1, the binding result is reported as “no binding”.

Regarding B2, the binding result was “no binding”.

Take B3: the binding result is recorded as “no binding”.

A further data set deals with T1, CitGATA7. The data set can be described thus: EMSA; attenuated dose-dependently by unlabeled WT probe; LightShift Chemiluminescent EMSA kit (Thermo), manufacturer's instructions; buffer, salt, pH and temperature not stated. As to conditions: protein: recombinant; tags: His (pET-32a); label: 3'-biotin (both strands); blunt.
B4: the binding result is listed as “binds”.

As for B5, the binding result is given as “binds”.

B6: the binding result was “binds”.
